The source of these data is PMC4239648.

The assay addresses HsiC2Δ1–30, bacterial two-hybrid fusion (P. aeruginosa PAO1). Nature of the assay: two-hybrid; bacterial two-hybrid (BTH): T25 and T18 fusions of B. pertussis adenylate cyclase co-transformed in E. coli DHM1; spots on MacConkey maltose and X-gal LB agar, 30 °C, at least 48 h; β-galactosidase activity in Miller units.

For the substance “ClpV2, full length, bacterial two-hybrid fusion (enzyme)”, the fold reduction of binding against full-length HsiC2 is 10 fold.
